Numbered stars: 1 amine (or outer) side, 2 acyl side, 3 side chain; on linkers, the order of the positions; unused ones are H or OH. Bridge positions count the residues as written; N and C are the ends. Side chains are listed from the residue outwards. Ends that are not written are not given here. * marks the point of attachment. C20 diacid = O=C(O)CCCCCCCCCCCCCCCCCCC(=O)*; γGlu = O=C(O)[C@H](CCC(=O)[*:2])N[*:1]; AEEA = NCCOCCOCC(=O)O
T1: human calcitonin receptor (human, UniProt P30988 25-474)
T1 sequence (looked up): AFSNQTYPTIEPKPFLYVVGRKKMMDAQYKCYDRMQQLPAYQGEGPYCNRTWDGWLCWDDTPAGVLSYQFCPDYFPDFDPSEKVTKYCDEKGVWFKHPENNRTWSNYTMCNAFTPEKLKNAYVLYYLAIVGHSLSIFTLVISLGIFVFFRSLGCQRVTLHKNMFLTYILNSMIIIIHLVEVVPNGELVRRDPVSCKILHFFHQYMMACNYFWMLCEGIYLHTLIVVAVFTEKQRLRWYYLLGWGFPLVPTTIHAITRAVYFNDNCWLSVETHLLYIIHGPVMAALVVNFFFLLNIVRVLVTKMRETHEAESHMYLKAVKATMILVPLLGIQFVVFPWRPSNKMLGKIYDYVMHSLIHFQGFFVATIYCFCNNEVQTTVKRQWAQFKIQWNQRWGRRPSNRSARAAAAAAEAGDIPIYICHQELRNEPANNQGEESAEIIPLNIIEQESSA

T2: human amylin receptor (amylin 3(a) receptor: human calcitonin receptor coexpressed with RAMP-3) (human, UniProt P30988 25-474; O60896 24-148)
T2 sequence (looked up) 1: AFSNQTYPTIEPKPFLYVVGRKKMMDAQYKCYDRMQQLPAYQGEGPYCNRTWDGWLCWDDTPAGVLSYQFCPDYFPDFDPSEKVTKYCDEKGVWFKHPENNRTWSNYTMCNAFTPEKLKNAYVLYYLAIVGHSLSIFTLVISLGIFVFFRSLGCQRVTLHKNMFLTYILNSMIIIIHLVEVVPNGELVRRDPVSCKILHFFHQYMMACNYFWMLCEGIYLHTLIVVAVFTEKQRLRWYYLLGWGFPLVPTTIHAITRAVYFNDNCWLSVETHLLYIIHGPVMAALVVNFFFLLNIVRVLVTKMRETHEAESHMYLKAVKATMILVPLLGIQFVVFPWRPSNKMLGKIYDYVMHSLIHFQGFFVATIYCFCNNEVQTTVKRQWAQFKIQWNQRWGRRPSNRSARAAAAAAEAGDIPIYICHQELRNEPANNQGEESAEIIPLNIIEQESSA
T2 sequence (looked up) 2: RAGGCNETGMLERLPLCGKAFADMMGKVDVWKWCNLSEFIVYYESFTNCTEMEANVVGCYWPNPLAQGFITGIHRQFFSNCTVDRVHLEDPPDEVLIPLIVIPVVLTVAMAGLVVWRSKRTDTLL


Key:
[1] = target: T1, human calcitonin receptor; assay: cell-based or functional assay
[2] = target: T2, human amylin receptor (amylin 3(a) …); assay: cell-based or functional assay

| Binder | Ratio hCT/hAmylin funct. [1] | hCTR funct. EC50 (pM) [1] [pM] | hAmylin-R funct. EC50 (pM) [2] [pM] |
| --- | --- | --- | --- |
| K([AEEA-AEEA-γGlu-C20 diacid])CNTATCATQRLANFLRHSSPNFGAIPSSTNVGPNTY-NH2 (disulfide 2-7; N-terminus assumed; SMILES CC[C@H](C)[C@H](NC(=O)[C@H](C)NC(=O)CNC(=O)[C@H](Cc1ccccc1)NC(=O)[C@H](CC(N)=O)NC(=O)[C@@H]1CCCN1C(=O)[C@H](CO)NC(=O)[C@H](CO)NC(=O)[C@H](Cc1c[nH]cn1)NC(=O)[C@H](CCCNC(=N)N)NC(=O)[C@H](CC(C)C)NC(=O)[C@H](Cc1ccccc1)NC(=O)[C@H](CC(N)=O)NC(=O)[C@H](C)NC(=O)[C@H](CC(C)C)NC(=O)[C@H](CCCNC(=N)N)NC(=O)[C@H](CCC(N)=O)NC(=O)[C@@H](NC(=O)[C@H](C)NC(=O)[C@@H]1CSSC[C@H](NC(=O)[C@@H](N)CCCCNC(=O)COCCOCCNC(=O)COCCOCCNC(=O)CC[C@H](NC(=O)CCCCCCCCCCCCCCCCCCC(=O)O)C(=O)O)C(=O)N[C@@H](CC(N)=O)C(=O)N[C@@H]([C@@H](C)O)C(=O)N[C@@H](C)C(=O)N[C@@H]([C@@H](C)O)C(=O)N1)[C@@H](C)O)C(=O)N1CCC[C@H]1C(=O)N[C@@H](CO)C(=O)N[C@@H](CO)C(=O)N[C@H](C(=O)N[C@@H](CC(N)=O)C(=O)N[C@H](C(=O)NCC(=O)N1CCC[C@H]1C(=O)N[C@@H](CC(N)=O)C(=O)N[C@H](C(=O)N[C@@H](Cc1ccc(O)cc1)C(N)=O)[C@@H](C)O)C(C)C)[C@@H](C)O, also called compound 98) | 19.5 | 1630 | 84 |
| K([AEEA-γGlu-C20 diacid])CNTATCATQRLAHFLRHSSPNFGAIPSSTNVGRNTY-NH2 (disulfide 2-7; N-terminus assumed; SMILES CC[C@H](C)[C@H](NC(=O)[C@H](C)NC(=O)CNC(=O)[C@H](Cc1ccccc1)NC(=O)[C@H](CC(N)=O)NC(=O)[C@@H]1CCCN1C(=O)[C@H](CO)NC(=O)[C@H](CO)NC(=O)[C@H](Cc1c[nH]cn1)NC(=O)[C@H](CCCNC(=N)N)NC(=O)[C@H](CC(C)C)NC(=O)[C@H](Cc1ccccc1)NC(=O)[C@H](Cc1c[nH]cn1)NC(=O)[C@H](C)NC(=O)[C@H](CC(C)C)NC(=O)[C@H](CCCNC(=N)N)NC(=O)[C@H](CCC(N)=O)NC(=O)[C@@H](NC(=O)[C@H](C)NC(=O)[C@@H]1CSSC[C@H](NC(=O)[C@@H](N)CCCCNC(=O)COCCOCCNC(=O)CC[C@H](NC(=O)CCCCCCCCCCCCCCCCCCC(=O)O)C(=O)O)C(=O)N[C@@H](CC(N)=O)C(=O)N[C@@H]([C@@H](C)O)C(=O)N[C@@H](C)C(=O)N[C@@H]([C@@H](C)O)C(=O)N1)[C@@H](C)O)C(=O)N1CCC[C@H]1C(=O)N[C@@H](CO)C(=O)N[C@@H](CO)C(=O)N[C@H](C(=O)N[C@@H](CC(N)=O)C(=O)N[C@H](C(=O)NCC(=O)N[C@@H](CCCNC(=N)N)C(=O)N[C@@H](CC(N)=O)C(=O)N[C@H](C(=O)N[C@@H](Cc1ccc(O)cc1)C(N)=O)[C@@H](C)O)C(C)C)[C@@H](C)O, also called compound 84) | – | 5490 | 169 |
| K([AEEA-γGlu-C20 diacid])CNTATCATQRLAHFLRHSSPNFGAIPSSTNVGHNTY-NH2 (disulfide 2-7; N-terminus assumed; SMILES CC[C@H](C)[C@H](NC(=O)[C@H](C)NC(=O)CNC(=O)[C@H](Cc1ccccc1)NC(=O)[C@H](CC(N)=O)NC(=O)[C@@H]1CCCN1C(=O)[C@H](CO)NC(=O)[C@H](CO)NC(=O)[C@H](Cc1c[nH]cn1)NC(=O)[C@H](CCCNC(=N)N)NC(=O)[C@H](CC(C)C)NC(=O)[C@H](Cc1ccccc1)NC(=O)[C@H](Cc1c[nH]cn1)NC(=O)[C@H](C)NC(=O)[C@H](CC(C)C)NC(=O)[C@H](CCCNC(=N)N)NC(=O)[C@H](CCC(N)=O)NC(=O)[C@@H](NC(=O)[C@H](C)NC(=O)[C@@H]1CSSC[C@H](NC(=O)[C@@H](N)CCCCNC(=O)COCCOCCNC(=O)CC[C@H](NC(=O)CCCCCCCCCCCCCCCCCCC(=O)O)C(=O)O)C(=O)N[C@@H](CC(N)=O)C(=O)N[C@@H]([C@@H](C)O)C(=O)N[C@@H](C)C(=O)N[C@@H]([C@@H](C)O)C(=O)N1)[C@@H](C)O)C(=O)N1CCC[C@H]1C(=O)N[C@@H](CO)C(=O)N[C@@H](CO)C(=O)N[C@H](C(=O)N[C@@H](CC(N)=O)C(=O)N[C@H](C(=O)NCC(=O)N[C@@H](Cc1c[nH]cn1)C(=O)N[C@@H](CC(N)=O)C(=O)N[C@H](C(=O)N[C@@H](Cc1ccc(O)cc1)C(N)=O)[C@@H](C)O)C(C)C)[C@@H](C)O, also called compound 80) | 15.4 | 2140 | 139 |
| K([AEEA-γGlu-C20 diacid])CNTATCATQRLANFLRHSSPNFGAIPSSTNVGRNTY-NH2 (disulfide 2-7; N-terminus assumed; SMILES CC[C@H](C)[C@H](NC(=O)[C@H](C)NC(=O)CNC(=O)[C@H](Cc1ccccc1)NC(=O)[C@H](CC(N)=O)NC(=O)[C@@H]1CCCN1C(=O)[C@H](CO)NC(=O)[C@H](CO)NC(=O)[C@H](Cc1c[nH]cn1)NC(=O)[C@H](CCCNC(=N)N)NC(=O)[C@H](CC(C)C)NC(=O)[C@H](Cc1ccccc1)NC(=O)[C@H](CC(N)=O)NC(=O)[C@H](C)NC(=O)[C@H](CC(C)C)NC(=O)[C@H](CCCNC(=N)N)NC(=O)[C@H](CCC(N)=O)NC(=O)[C@@H](NC(=O)[C@H](C)NC(=O)[C@@H]1CSSC[C@H](NC(=O)[C@@H](N)CCCCNC(=O)COCCOCCNC(=O)CC[C@H](NC(=O)CCCCCCCCCCCCCCCCCCC(=O)O)C(=O)O)C(=O)N[C@@H](CC(N)=O)C(=O)N[C@@H]([C@@H](C)O)C(=O)N[C@@H](C)C(=O)N[C@@H]([C@@H](C)O)C(=O)N1)[C@@H](C)O)C(=O)N1CCC[C@H]1C(=O)N[C@@H](CO)C(=O)N[C@@H](CO)C(=O)N[C@H](C(=O)N[C@@H](CC(N)=O)C(=O)N[C@H](C(=O)NCC(=O)N[C@@H](CCCNC(=N)N)C(=O)N[C@@H](CC(N)=O)C(=O)N[C@H](C(=O)N[C@@H](Cc1ccc(O)cc1)C(N)=O)[C@@H](C)O)C(C)C)[C@@H](C)O, also called compound 78) | – | 8160 | 316 |
| K([AEEA-γGlu-C20 diacid])CNTATCATQRLARFLRHSSPNFGAIPSSTNVGSNTY-NH2 (disulfide 2-7; N-terminus assumed; SMILES CC[C@H](C)[C@H](NC(=O)[C@H](C)NC(=O)CNC(=O)[C@H](Cc1ccccc1)NC(=O)[C@H](CC(N)=O)NC(=O)[C@@H]1CCCN1C(=O)[C@H](CO)NC(=O)[C@H](CO)NC(=O)[C@H](Cc1c[nH]cn1)NC(=O)[C@H](CCCNC(=N)N)NC(=O)[C@H](CC(C)C)NC(=O)[C@H](Cc1ccccc1)NC(=O)[C@H](CCCNC(=N)N)NC(=O)[C@H](C)NC(=O)[C@H](CC(C)C)NC(=O)[C@H](CCCNC(=N)N)NC(=O)[C@H](CCC(N)=O)NC(=O)[C@@H](NC(=O)[C@H](C)NC(=O)[C@@H]1CSSC[C@H](NC(=O)[C@@H](N)CCCCNC(=O)COCCOCCNC(=O)CC[C@H](NC(=O)CCCCCCCCCCCCCCCCCCC(=O)O)C(=O)O)C(=O)N[C@@H](CC(N)=O)C(=O)N[C@@H]([C@@H](C)O)C(=O)N[C@@H](C)C(=O)N[C@@H]([C@@H](C)O)C(=O)N1)[C@@H](C)O)C(=O)N1CCC[C@H]1C(=O)N[C@@H](CO)C(=O)N[C@@H](CO)C(=O)N[C@H](C(=O)N[C@@H](CC(N)=O)C(=O)N[C@H](C(=O)NCC(=O)N[C@@H](CO)C(=O)N[C@@H](CC(N)=O)C(=O)N[C@H](C(=O)N[C@@H](Cc1ccc(O)cc1)C(N)=O)[C@@H](C)O)C(C)C)[C@@H](C)O, also called compound 82) | – | 12700 | 215 |
| K([γGlu-C20 diacid])CNTATCATQRLARFLRHSSPNFGAIPSSTNVGSNTY-NH2 (disulfide 2-7; N-terminus assumed; SMILES CC[C@H](C)[C@H](NC(=O)[C@H](C)NC(=O)CNC(=O)[C@H](Cc1ccccc1)NC(=O)[C@H](CC(N)=O)NC(=O)[C@@H]1CCCN1C(=O)[C@H](CO)NC(=O)[C@H](CO)NC(=O)[C@H](Cc1c[nH]cn1)NC(=O)[C@H](CCCNC(=N)N)NC(=O)[C@H](CC(C)C)NC(=O)[C@H](Cc1ccccc1)NC(=O)[C@H](CCCNC(=N)N)NC(=O)[C@H](C)NC(=O)[C@H](CC(C)C)NC(=O)[C@H](CCCNC(=N)N)NC(=O)[C@H](CCC(N)=O)NC(=O)[C@@H](NC(=O)[C@H](C)NC(=O)[C@@H]1CSSC[C@H](NC(=O)[C@@H](N)CCCCNC(=O)CC[C@H](NC(=O)CCCCCCCCCCCCCCCCCCC(=O)O)C(=O)O)C(=O)N[C@@H](CC(N)=O)C(=O)N[C@@H]([C@@H](C)O)C(=O)N[C@@H](C)C(=O)N[C@@H]([C@@H](C)O)C(=O)N1)[C@@H](C)O)C(=O)N1CCC[C@H]1C(=O)N[C@@H](CO)C(=O)N[C@@H](CO)C(=O)N[C@H](C(=O)N[C@@H](CC(N)=O)C(=O)N[C@H](C(=O)NCC(=O)N[C@@H](CO)C(=O)N[C@@H](CC(N)=O)C(=O)N[C@H](C(=O)N[C@@H](Cc1ccc(O)cc1)C(N)=O)[C@@H](C)O)C(C)C)[C@@H](C)O, also called compound 83) [N^ε1-[(4S)-4-carboxy-4-(19-carboxynonadecanoylamino)butanoyl]-[Arg14,Arg17,Pro21,Pro27]-h-amylin] | – | 16800 | 405 |

Reference: patent US20140087995A1 (published 2014)
